The supplement of paper PMC11246515
± gives the standard deviation of the averaged measurements.

Experiment: total protein half-life in vivo (active degradation + dilution); higher = more stable protein
[1] = E. coli NCM3722 delta-clpP delta-lon delta-hslV, growth: N-lim chemostat, doubling time 6 h
[2] = E. coli NCM3722 delta-clpP, growth: N-lim chemostat, doubling time 6 h
[3] = E. coli NCM3722 delta-hslV, growth: N-lim chemostat, doubling time 6 h
[4] = E. coli NCM3722 delta-lon, growth: N-lim chemostat, doubling time 6 h
[5] = E. coli NCM3722 delta-smpB, growth: N-lim chemostat, doubling time 6 h
[6] = wild type E. coli NCM3722, growth: C-lim chemostat, doubling time 3 h
[7] = wild type E. coli NCM3722, growth: C-lim chemostat, doubling time 6 h
[8] = wild type E. coli NCM3722, growth: C-lim chemostat, doubling time 12 h
[9] = wild type E. coli NCM3722, growth: N-lim chemostat, doubling time 6 h
[10] = wild type E. coli NCM3722, growth: N-lim chemostat, doubling time 12 h
[11] = wild type E. coli NCM3722, growth: P-lim chemostat, doubling time 6 h
[12] = wild type E. coli NCM3722, growth: P-lim chemostat, doubling time 12 h

Sequence | total protein half-life in vivo [1] [h] | total protein half-life in vivo [2] [h] | total protein half-life in vivo [3] [h] | total protein half-life in vivo [4] [h] | total protein half-life in vivo [5] [h] | total protein half-life in vivo [6] [h] | total protein half-life in vivo [7] [h] | total protein half-life in vivo [8] [h] | total protein half-life in vivo [9] [h] | total protein half-life in vivo [10] [h] | total protein half-life in vivo [11] [h] | total protein half-life in vivo [12] [h]
MFTGSIVAIVTPMDEKGNVCRASLKKLIDYHVASGTSAIVSVGTTGESATLNHDEHADVVMMTLDLADGRIPVIAGTGANATAEAISLTQRFNDSGIVGCLTVTPYYNRPSQEGLYQHFKAIAEHTDLPQILYNVPSRTGCDLLPETVGRLAKVKNIIGIKEATGNLTRVNQIKELVSDDFVLLSGDDASALDFMQLGGHGVISVTANVAARDMAQMCKLAAEGHFAEARVINQRLMPLHNKLFVEPNPIPVKWACKELGLVATDTLRLPMTPITDSGRETVRAALKHAGLL [P0A6L2] | 4.22 ± 0.18 | 3.67 ± 0.84 | 3.03 ± 0.44 | 4.05 ± 0.09 | 3.42 ± 0.18 | 3.09 ± 0.099 | 5.47 ± 0.57 | 11.4 ± 0.21 | 3.43 ± 0.14 | 5.28 ± 0.1 | 5.72 ± 0.24 | 11.1 ± 0.94
MFVEHNLIKNIKIFTLAFTLTVVLIQLSRFISPLAIIHSSYIFLAWMPLCVMLSILFIFGWRGVVPVLCGMFCTNLWNFHLSFLQTAVMLGSQTFVVLCACAILRWQLGTRWRYGLTSRYVWQRLFWLGLVTPIGIKCSMYLVGSFFDFPLKISTFFGDADAIFTVVDLLSLFTAVLIYNMLFYYLTRMIVSPHFAQILWRRDIAPSLGKEKRAFTLSWLAALSVLLLLLCTPYENDFIAGYLVPVFFIIFTLGVGKLRYPFLNLTWAVSTLCLLNYNQNFLQGVETEYSLAFILAVLISFSVCLLYMVRIYHRSEWLNRRWHLQALTDPLTLLPNFRALEQAPEQEAGKSFCCLRIDNLEFMSRHYGLMMRVHCIRSICRTLLPLMQENEKLYQLPGSELLLVLSGPETEGRLQHMVNILNSRQIHWNNTGLDMGYGAAWGRFDGNQETLQPLLGQLSWLAEQSCAHHHVLALDSREEMVSGQTTKQVLLLNTIRTALDQGDLLLYAQPIRNKEGEGYDEILARLKYDGGIMTPDKFLPLIAQFNLSARFDLQVLESLLKWLATHPCDKKGPRFSVNLMPLTLLQKNIAGRIIRLFKRYHISPQAVILEITEEQAFSNAESSMYNIEQLHKFGFRIAIDDFGTGYANYERLKRLQADIIKIDGVFVKDIVTNTLDAMIVRSITDLAKAKSLSVVAEFVETQQQQALLHKLGVQYLQGYLIGRPQPLAD |  | 6.53 ± 0.1 | 5.86 ± 0.58 | 6.27 ± 0.65 | 5.72 ± 0.47 |  | 5.29 ± 1.1 | 13.6 ± 0.27 | 6.08 ± 0.22 | 12.2 ± 1.5 | 6.1 ± 0.44 | 13.8 ± 0.87
MFYPDPFDVIIIGGGHAGTEAAMAAARMGQQTLLLTHNIDTLGQMSCNPAIGGIGKGHLVKEVDALGGLMAKAIDQAGIQFRILNASKGPAVRATRAQADRVLYRQAVRTALENQPNLMIFQQAVEDLIVENDRVVGAVTQMGLKFRAKAVVLTVGTFLDGKIHIGLDNYSGGRAGDPPSIPLSRRLRELPLRVGRLKTGTPPRIDARTIDFSVLAQQHGDNPMPVFSFMGNASQHPQQVPCYITHTNEKTHDVIRSNLDRSPMYAGVIEGVGPRYCPSIEDKVMRFADRNQHQIFLEPEGLTSNEIYPNGISTSLPFDVQMQIVRSMQGMENAKIVRPGYAIEYDFFDPRDLKPTLESKFIQGLFFAGQINGTTGYEEAAAQGLLAGLNAARLSADKEGWAPARSQAYLGVLVDDLCTLGTKEPYRMFTSRAEYRLMLREDNADLRLTEIGRELGLVDDERWARFNEKLENIERERQRLKSTWVTPSAEAAAEVNAHLTAPLSREASGEDLLRRPEMTYEKLTTLTPFAPALTDEQAAEQVEIQVKYEGYIARQQDEIEKQLRNENTLLPATLDYRQVSGLSNEVIAKLNDHKPASIGQASRISGVTPAAISILLVWLKKQGMLRRSA [P0A6U3] | 5.157 ± 0.0054 | 4.25 ± 0.18 | 1.64 ± 0.088 | 1.831 ± 0.014 | 1.73 ± 0.065 | 1.42 ± 0.081 | 2.35 ± 0.068 | 3.19 ± 1.2 | 1.71 ± 0.14 | 2.48 ± 0.15 | 1.9 ± 0.13 | 3.12 ± 0.84
MGAELVKWVKSHKIDAHIITFVAKMPYIDSIKLLEAGAKGCVWKTSHPAKLNRAIDSISNGYTYFDSVHMDCEKISSRYSSDNQLTNRESEILQLIADGKTNKEIANFLQLSRKTVETHRLNIMKKLDVHSGIELIKTALRMGVCTI | 5.42 |  |  | 5.01 | 5.08 ± 0.25 | 2.7 | 4.55 ± 1.5 | 8.41 ± 2.9 | 5.22 ± 0.2 |  |  | 
MGDIMRPIPFEELLTRIFDEYQQQRSIFGIPEQQFYSPVKGKTVSVFGETCATPVGPAAGPHTQLAQNIVTSWLTGGRFIELKTVQILDRLELEKPCIDAEDECFNTEWSTEFTLLKAWDEYLKAWFALHLLEAMFQPSDSGKSFIFNMSVGYNLEGIKQPPMQQFIDNMMDASDHPKFAQYRDTLNKLLQDDAFLARHGLQEKRESLQALPARIPTSMVHGVTLSTMHGCPPHEIEAICRYMLEEKGLNTFVKLNPTLLGYARVREILDVCGFGYIGLKEESFDHDLKLTQALEMLERLMALAKEKSLGFGVKLTNTLGTINNKGALPGEEMYMSGRALFPLSINVAAVLSRAFDGKLPISYSGGASQLTIRDIFDTGIRPITMATDLLKPGGYLRLSACMRELEGSDAWGLDHVDVERLNRLAADALTMEYTQKHWKPEERIEVAEDLPLTDCYVAPCVTACAIKQDIPEYIRLLGEHRYADALELIYQRNALPAITGHICDHQCQYNCTRLDYDSALNIRELKKVALEKGWDEYKQRWHKPAGSGSRHPVAVIGAGPAGLAAGYFLARAGHPVTLFEREANAGGVVKNIIPQFRIPAELIQHDIDFVAAHGVKFEYGCSPDLTIEQLKNQGFHYVLIATGTDKNSGVKLAGDNQNVWKSLPFLREYNKGTALKLGKHVVVVGAGNTAMDCARAALRVPGVEKATIVYRRSLQEMPAWREEYEEALHDGVEFRFLNNPERFDADGTLTLRVMSLGEPDEKGRRRPVETNETVTLLVDSLITAIGEQQDTEALNAMGVPLDKNGWPDVDHNGETRLTDVFMIGDVQRGPSSIVAAVGTARRATDAILSRENIRSHQNDKYWNNVNPAEIYQRKGDISITLVNSDDRDAFVAQEAARCLECNYVCSKCVDVCPNRANVSIAVPGFQNRFQTLHLDAYCNECGNCAQFCPWNGKPYKDKITVFSLAQDFDNSSNPGFLVEDCRVRVRLNNQSWVLNIDSKGQFNNVPPELNDMCRIISHVHQHHHYLLGRVEV | 6.26 ± 1.4 | 5.57 | 5.57 | 6.62 |  | 2.86 ± 0.32 | 6.06 |  | 6.49 |  |  | 
